Test results: PMC2425476 (Nucleic Acids Research, 2008)
Like-named read-outs stand apart in the source and are kept apart here.

B1: γ subunit of the E. coli clamp loader (γ complex) (natural protein)
chain: MSYQVLARKWRPQTFADVVGQEHVLTALANGLSLGRIHHAYLFSGTRGVGKTSIARLLAKGLNCETGITATPCGVCDNCREIEQGRFVDLIEIDAASRTKVEDTRDLLDNVQYAPARGRFKVYLIDEVHMLSRHSFNALLKTLEEPPEHVKFLLATTDPQKLPVTILSRCLQFHLKALDVEQIRHQLEHILNEEHIAHEPRALQLLARAAEGSLRDALSLTDQAIASGDGQVSTQAVSAMLGTLDDDQALSLVEAMVEANGERVMALINEAAARGIEWEALLVEMLGLLHRIAMVQLSPAALGNDMAAIELRMRELARTIPPTDIQLYYQTLLIGRKELPYAPDRRMGVEMTLLRALAFHPRMPLPEPEVPRQSFAPVAPTAVMTPTQVPPQPQSAPQQAPTVPLPETTSQVLAARQQLQRVQGATKAKKE
B2: 30 nt/55 nt p/tDNA (mixed)
DNA 1: TGAGCGTTTTTCCTGTTGCAATGGCTGGCGGTAATATTGTTCTGGATATTACCAG
DNA 2: CTGGTAATATCCAGAACAATATTACCGCCA
modifications: 5' amino linker on template (S2)

Tests used:
[1] = target: the molecule itself
[2] = target: γ complex (clamp loader, γ3δδ'χψ), wild type;β clamp (Escherichia coli;Escherichia coli, UniProt P06710-2;P28630;P28631;P28905;P28632;P0A988 1-431;1-343;1-334;1-147;1-137;1-366, |); experiment: fluorescence anisotropy
δW279Y-γ complex;β clamp [3] = target: T1, δW279Y-γ complex;β clamp (Escherichia coli;Escherichia coli, UniProt P06710-2;P28630;P28631;P28905;P28632;P0A988 1-431;1-343;1-334;1-147;1-137;1-366, W279Y|); experiment: fluorescence anisotropy
δW279A-γ complex;β clamp = δW279A-γ complex;β clamp (Escherichia coli;Escherichia coli, UniProt P06710-2;P28630;P28631;P28905;P28632;P0A988 1-431;1-343;1-334;1-147;1-137;1-366, W279A|); experiment: fluorescence anisotropy
δW279Y-γ complex;β clamp [4] = target: T1, δW279Y-γ complex;β clamp; experiment: fluorescence anisotropy; remark: listed apart in the source
[5] = target: δW279A/R277A-γ complex;β clamp (Escherichia coli;Escherichia coli, UniProt P06710-2;P28630;P28631;P28905;P28632;P0A988 1-431;1-343;1-334;1-147;1-137;1-366, R277A;W279A|); experiment: fluorescence anisotropy
[6] = target: δW279A/R283A-γ complex;β clamp (Escherichia coli;Escherichia coli, UniProt P06710-2;P28630;P28631;P28905;P28632;P0A988 1-431;1-343;1-334;1-147;1-137;1-366, W279A;R283A|); experiment: fluorescence anisotropy

Binder | binding result [1] | Kd [2] [nM] | Kd (δW279Y-γ complex;β clamp [3]) [nM] | Kd (δW279A-γ complex;β clamp) [nM] | Kd (δW279Y-γ complex;β clamp [4]) [nM] | binding result [5] | binding result [6]
B1 | binds | – | – | – | – | – | –
B2 | – | 60 ± 10 | 159 ± 15 | 590 ± 80 | ~800 | no binding | no binding
